From patent publication US20230119066A1 (Bristol-Myers Squibb, published 2023)
Each block holds one binder with its values, some of them ahead of it.

Tests used:
[1] = biological target: T1, human C-C Motif Chemokine Receptor 8 (hCCR8) (human, UniProt P51685 1-355); test: cell-based or functional assay
[2] = biological target: T1, human C-C Motif Chemokine Receptor 8 …; test: cell-based or functional assay; remark: listed apart in the source
[3] = biological target: T1, human C-C Motif Chemokine Receptor 8 …; test: cell-based or functional assay; remark: listed apart in the source
[4] = biological target: T1, human C-C Motif Chemokine Receptor 8 …; test: flow cytometry, binding to activated human Tregs, median EC50
Procedure: Activated Tregs prepared from previously isolated and expanded Tregs were stimulated for 2 days with anti-CD3/CD28 activation beads (ThermoFisher) in the presence of 100 units/ml of recombinant human IL-2. The Abs were serially diluted from a starting concentration of 30 μg/ml. An appropriate PE-conjugated secondary Ab (Jackson ImmunoResearch) against the primary anti-CCR8 Ab was applied, incubated for 15 min at 4° C., and then washed off. EC₅₀ values for the binding of selected anti-CCR8 mAbs to activated Tregs, was calculated using GraphPad Prism (GraphPad Software, La Jolla, Calif.).
A select subset of Abs having EC₅₀ values ranging from picomolar to nanomolar is presented in FIG. 11B, and the respective EC₅₀ values are provided in Table 4.

[5] = biological target: T2, CCR8 N-terminal peptide (SPR of Example 10) (human, sulfation not stated in Example 10; the panning peptide was biotinylated); test: SPR; starting mouse Ab 9G10, before humanization
T2 construct: also called biotinylated CCR8 N-terminal peptide from Anaspec

[6] = biological target: T2, CCR8 N-terminal peptide (SPR of Example …); test: SPR; 14S15h Fab fragment, humanized, affinity-matured

- IC50 (nM), blockade of calcium flux on CCR8-expressing cells [1]: 1.33 nM
- EC50 (pM), cross-linking of CD16 expression reporter cells [2]: 8.02 pM
- EC50 [4]: 0.252 nM
B1: mAb 14S15, nonfucosylated chimeric mouse-human anti-hCCR8 (antibody, human IgG1, kappa, V domains shown)
VH: EVQLVEFGGGLVQPKGSLKLSCVVSGFRFNPYAMNWVRQAPGKGLEWLGRIRSKSNNYETYYADSVKDRFIISRDDSQKMVYLQMNNVKTEDTAMYYCVGYSDLYVLDYWGQGTSVTVSS
VL: DIVMTQAAPSVPVTPGESVSISCRSSKSLLHSNGNTFLYWFLQRPGQSPQLLIYRMSNLASGVPHRFSGSGSGTAFTLRISRVEAEDVGVYYCMQHLEYPFTFGSGTKLEIKR
notes: Chimeric version with nf human IgG1 Fc; also called 14S15-IgG1-nf; CCR8.2
- Median EC50 (pM), ADCC killing of activated Tregs by allogeneic NK cells [3]: 39.7 pM

- Kd [5]: 1.4 nM
B2: 9G10, starting mouse anti-CCR8 mAb of 14S15 and 14S15h (antibody, V domains shown)
VH: B1 VH
VL: DIVMTQAAPSVPVTPGESVSISCRSSKSLLHSNGNTFLYWFLQRPGQSPQLLIYRMSNLASGVPHRFSGSGSGTAFTLRISRVEAEDVGVYYCMQHLEYPFTFGSGTKLEIK
notes: also called starting mouse Ab; starting mouse mAb

- IC50 (nM), blockade of calcium flux on CCR8-expressing cells [1]: 0.465 nM
- EC50 (pM), cross-linking of CD16 expression reporter cells [2]: 0.69 pM
- EC50 [4]: 1.65 nM
B3: mAb 4A19, nonfucosylated humanized IgG1 anti-hCCR8 (antibody, V domains shown)
VH: QVQLVQSGAEVKKPGASVKVSCKASGYTFTDSEMHWVRQATGQGLEWMGAIQPETGGTAYNQKFKARVTMTRDTSISTAYMELSSLRSEDTAVYYCARRRRNFDYWGQGTLVTVSS
VL: DIVMTQTPLSLSVTPGQPASISCRSSQSLFHSSGNTYLHWYLQKPGQPPQLLIYKVSNRFSGVPDRFSGSGSGTDFTLKISRVEAEDVGVYYCSQSTHVPFTFGQGTKLEIKR
notes: hIgG1-nf, expressed in Expi293 Fut8-/- cells; also called CCR8-nf; A419
- Median EC50 (pM), ADCC killing of activated Tregs by allogeneic NK cells [3]: 13.1 pM

B4: mAb 12F27 (antibody, V domains shown)
VH: QVQLVESGGGVVQPGRSLRLSCAASGFSFRSYGIHWVRQAPGKGLEWVAVISYEGSNKRYADSVKGRFTISRDNSKSTLSLQMNSLRAEDTAVYYCAKGRRPSGEGAFDIWGQGTMVTVSS
VL: DIQMTQSPSSLSASVGDRVTITCRASQGISSWLAWYQQKPEKAPKSLIYAASSLQSGVPSRFSGSGSGTDFTLTISSLQPEDFATYYCQQYNSFPPTFGQGTKVEIKR
- Median EC50 (pM), ADCC killing of activated Tregs by allogeneic NK cells [3]: 304000 pM

- Kd [6]: 0.64 nM
B5: 14S15h Fab fragment (Fab, V domains shown)
VH: EVQLVESGGGLVKPGGSLRLSCAASGFRFGPYAMNWVRQAPGKGLEWVGRIRSKSNNYETYYADSVKDRFTISRDDSKNTLYLQMNSLKTEDTAVYYCVGYSDLYVLDYWGQGTLVTVSS
VL: DIVMTQTPPSLPVNPGEPASISCRSSKSLLHSQGNTFLYWYLQKPGQSPQLLIYRMSNLASGVPDRFSGSGSGSDFTLKISWVEAEDVGVYYCMQHLEYPFTFGPGTKVDIK
notes: Tested as a Fab fragment whose constant parts are not delimited
